Assays:
recombinant human CD47 = molecular target: T1, recombinant human CD47 (human, UniProt Q08722 19-139); assay: ELISA, plate coated with 1 µg/mL recombinant human CD47, anti-human IgG-HRP, OD450
T1 construct: also called antigen CD47
Description: (§1) Species specificity of the chimeric anti-human CD47 mAbs was determined by ELISA. A 96-well high-adsorption ELISA plate was coated with 1 μg/mL of the recombinant human CD47, cynomolgus CD47, rat CD47 and mouse CD47, at 100 μL per well using carbonate buffer solution, pH=9.6 at 4° C. overnight. The plate was washed 5 times with PBST, and then blocked using PBST with 1% BSA, 300 μL/well, and incubated at 25° C. for 1 hour, and then washed 5 times with PBST. The chimeric anti-human CD47 antibody samples serially diluted in PBST with 1% BSA were added, 100 μL/well, incubated at 25° C. for 1 hour, and then washed 5 times with PBST. The horseradish peroxidase-labeled anti-human IgG antibody (Chemicon, catalog number AP309P) diluted 1:10000 in PBST with 1% BSA was then added, 100 μL per well, and incubated at 25° C. for 1 hour. The plate was washed 5 times with PBST. The colorimetric substrate TMB was added, 100 μL/well, and developed at room temperature for 10 minutes. 1M H₂SO₄ was added, 100 μL/well, to stop the development. The absorbance at 450 nm was read on a microplate reader.

[1] = molecular target: recombinant cynomolgus CD47 (cynomolgus, UniProt A0A2K5X523 19-139); assay: ELISA, plate coated with 1 µg/mL recombinant cynomolgus CD47, anti-human IgG-HRP, OD450
Description: as §1

T1 sequence (Q08722 19-139 limits assumed): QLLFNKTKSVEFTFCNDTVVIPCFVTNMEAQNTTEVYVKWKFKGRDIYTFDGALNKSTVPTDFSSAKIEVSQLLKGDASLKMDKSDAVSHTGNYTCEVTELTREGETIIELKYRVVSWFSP

EC50 (recombinant human CD47): 0.086 nM
EC50 [1]: 0.089 nM
B1: chimeric anti-human CD47 monoclonal antibody mAb-18-5 (antibody, human IgG1, kappa)
heavy: not shown
light: DIVMTQSQKFMSTSVGDRVSITCKASQNVRTSIAWYQQKSGQSPKTLIYLASNRHTGVPDRFTGSGSGTDFTLTISNVQSEDLADYFCLQHWNYPFTFGSGTKLEIKRTVAAPSVFIFPPSDEQLKSGTASVVCLLNNFYPREAKVQWKVDNALQSGNSQESVTEQDSKDSTYSLSSTLTLSKADYEKHKVYACEVTHQGLSSPVTKSFNRGEC

Reference: patent US20250277031A1 (BEIJING HANMI PHARMACEUTICAL, published 2025)
